Experimental data published in patent US20210253718A1, “FRIZZLED5 PROTEIN-BINDING AGENTS” (Modmab Therapeutics Corporation, priority 2016, published 2021).

Experiments:
Experiment in all cases: Flow cytometry of anti-FZD5 Fab binding to CHO cells overexpressing Frizzled CRD
FZD8 CRD = molecular target: T1, FZD8 CRD (Homo sapiens, UniProt Q9H461)
T1 construct: K31-D155; GPI anchor signal (C); expressed in transfected cells; host or cells: CHO cells, lentiviral pLenti-puro
T1 sequence (Q9H461 31-155): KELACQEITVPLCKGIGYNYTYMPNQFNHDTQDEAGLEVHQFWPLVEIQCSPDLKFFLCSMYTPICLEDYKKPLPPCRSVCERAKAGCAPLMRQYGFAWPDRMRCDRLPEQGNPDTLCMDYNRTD
Procedure: (§1) Plasmids: pLCKO lentiviral vector used for knockout (TKO) library construction and expression of individual gRNAs was constructed as described previously (Hart et al., 2015). Briefly, single guide RNA (sgRNA) scaffold was amplified from px330 (Addgene 42230) and cloned into pLKO.TRC005 lentiviral vector (Broad Institute, Cambridge, Mass.) using AgeI/EcoRI restriction sites. BfuAI sites were added at the 5′ end of the sgRNA scaffold for cloning the TKO library or individual gRNA target sequences. Lenti Cas9-2A-BsdR vector used to generate Cas9 stable expression cell lines was constructed as described previously (Hart et al., 2015). Briefly, lentiCRISPR pXPR_001 (Addgene 49535) was modified through removal of the sgRNA scaffold region through NdeI/EcoRI digest and blunt ends generation using Large Klenow Fragment (NEB). 2A-puro was replaced with 2A-BsdR by PCR using the NheI/MluI sites. Each of the 10 human Frizzled cysteine rich domains (CRDs) were cloned into the lentiviral expression plasmid pLenti-puro in the following cassette: FZD_CRD-MYC-GPI.
(§2) Flow cytometry: Primary staining of cells was performed by treatment with 200 nM Frizzled profiler Fab. Alexa Fluor 488 AffiniPure F(ab′)2 was used as the secondary antibody (Jackson ImmunoResearch #109-546-097). c-Myc (9E10) IgG1 (primary antibody, Santa Cruz, lot #D0306) and Alexa Fluor 488 IgG (secondary antibody, Life technologies, lot #1458649) were used as controls. Dead cells were excluded by staining with Fixable Viability Dye eFluor 660 (eBioscience, catalogue number 65-0864). All reagents were used as per manufacturer's instructions. Flow cytometry was performed on a BD FACSCanto II flow cytometer (BD Biosciences), and data were analyzed with FlowJo software (FlowJo, LLC).
(§3) To confirm that the FZD5-WNT7B circuit is not driven simply by expression and rule out the possibility of a disconnect between RNA and protein levels for the Wnt receptors in HPAF-II cells, a panel of recombinant Fabs were generated, alternatively referred to herein as ‘Frizzled profiler’, that can detect and discriminate all but one of the ten Frizzled receptors. […] To characterize the binding specificity of these Fabs on cells, a panel of 10 CHO cell lines was generated, each expressing the CRD domain of a different myc-tagged Frizzled family member anchored at the plasma membrane through a GPI anchor (CHO-myc-FZDGPI). Despite the high sequence identity between Frizzled family members (FIG. 7A, FIG. 7B), selective Fabs were identified for FZD4, FZD5, FZD6 and FZD10 as assessed by immunofluorescence and flow cytometry (FIG. 7D and FIG. 8). […] The FZD8 CRD is most homologous to that of FZD5 (FIG. 7B). These Fabs can be used to discriminate expression of FZD1, FZD2, FZD4, FZD5, FZD6, FZD7, FZD8, FZD9 and FZD10 (FIG. 7D and FIG. 8). The ‘Frizzled profiler’ therefore consists of 10 different Fabs that can be used to discriminate expression of 9 different Frizzled family members. The Frizzled profiler was then used to confirm that HPAF-II cells express FZD1, FZD5, FZD6 and possibly FZD8 (FIG. 7E).
(§4) The binding of anti-FZD5 Fabs to cell surface-expressed Frizzled protein was further determined for each member of the Frizzled family via flow cytometry and immunofluorescence analysis of a panel of 10 CHO cell lines, each ectopically over-expressing the extracellular cysteine-rich domain (CRD) of a different Frizzled protein family member.

FZD4 CRD = molecular target: T2, FZD4 CRD (Homo sapiens, UniProt Q9ULV1)
T2 construct: E42-V167; GPI anchor signal (C); expressed in transfected cells; host or cells: CHO cells, lentiviral pLenti-puro
T2 sequence (Q9ULV1 42-167): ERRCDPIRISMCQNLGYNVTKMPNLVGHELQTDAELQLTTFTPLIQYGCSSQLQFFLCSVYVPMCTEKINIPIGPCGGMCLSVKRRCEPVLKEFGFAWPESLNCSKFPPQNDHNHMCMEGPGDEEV
Procedure: as §1, §2, §3, §4

FZD3 CRD = molecular target: T3, FZD3 CRD (Homo sapiens, UniProt Q9NPG1)
T3 construct: CRD of FZD1, FZD2, FZD3, FZD4, FZD5, FZD6, FZD7, FZD8, FZD9 or FZD10; GPI anchor signal (C); expressed in transfected cells; host or cells: CHO cells, lentiviral pLenti-puro
T3 sequence (Q9NPG1 23-136 limits assumed): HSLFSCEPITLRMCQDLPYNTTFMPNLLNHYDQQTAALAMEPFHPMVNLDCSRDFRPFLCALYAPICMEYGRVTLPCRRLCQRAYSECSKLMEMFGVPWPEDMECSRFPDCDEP
Procedure: as §1, §2, §3, §4

FZD9 CRD = molecular target: T4, FZD9 CRD (Homo sapiens, UniProt O00144)
T4 construct: G35-A161; GPI anchor signal (C); expressed in transfected cells; host or cells: CHO cells, lentiviral pLenti-puro
T4 sequence (O00144 35-161): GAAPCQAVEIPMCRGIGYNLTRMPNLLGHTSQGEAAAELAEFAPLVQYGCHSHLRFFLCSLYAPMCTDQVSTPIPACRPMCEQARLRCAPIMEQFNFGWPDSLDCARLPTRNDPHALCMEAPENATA
Procedure: as §1, §2, §3, §4

FZD6 CRD = molecular target: T5, FZD6 CRD (Homo sapiens, UniProt O60353)
T5 construct: S20-P146; GPI anchor signal (C); expressed in transfected cells; host or cells: CHO cells, lentiviral pLenti-puro
T5 sequence (O60353 20-146): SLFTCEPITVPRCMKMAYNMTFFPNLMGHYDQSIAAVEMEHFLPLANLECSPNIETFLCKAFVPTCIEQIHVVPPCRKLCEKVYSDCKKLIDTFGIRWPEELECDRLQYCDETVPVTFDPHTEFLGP
Procedure: as §1, §2, §3, §4

FZD2 CRD = molecular target: T6, FZD2 CRD (Homo sapiens, UniProt Q14332)
T6 construct: D35-P161; GPI anchor signal (C); expressed in transfected cells; host or cells: CHO cells, lentiviral pLenti-puro
Procedure: as §1, §2, §3, §4

FZD1 CRD = molecular target: T7, FZD1 CRD (Homo sapiens, UniProt Q9UP38)
T7 construct: D112-P238; GPI anchor signal (C); expressed in transfected cells; host or cells: CHO cells, lentiviral pLenti-puro
Procedure: as §1, §2, §3, §4

Fab-2931: anti-FZD5 Fab with antibody variable region Fv-2931; CDR SEQ ID NOs: 35, 36, 70, 102, 146, 176 (CDR 1 QSVSSA; CDR 2 SAS; CDR 3 QQSSYSLIT; CDR 4 GFNLSYSS; CDR 5 ISPYSGST; CDR 6 ARGSYWYVGGGWWVSGHGGMDY)
Median fluorescence, Frizzled CRD overexpressed on CHO cells: FZD8 (FZD8 CRD): 7.43
Median fluorescence, Frizzled CRD overexpressed on CHO cells: FZD4 (FZD4 CRD): 3.65
Median fluorescence, Frizzled CRD overexpressed on CHO cells: FZD3 (FZD3 CRD): 3.49
Median fluorescence, Frizzled CRD overexpressed on CHO cells: FZD9 (FZD9 CRD): 2.76
Median fluorescence, Frizzled CRD overexpressed on CHO cells: FZD6 (FZD6 CRD): 2.89
Median fluorescence, Frizzled CRD overexpressed on CHO cells: FZD2 (FZD2 CRD): 4.7
Median fluorescence, Frizzled CRD overexpressed on CHO cells: FZD1 (FZD1 CRD): 10.27
